Results published in paper PMC11322666, “UPF3B modulates endoplasmic reticulum stress through interaction with inositol-requiring enzyme-1α” (Cell Death & Disease, 2024).

Key:
IRE1α^S724A = biological target: T1, IRE1α^S724A (human, UniProt O75460 19-977, S724A); experiment: co-IP; lysates of transfected HEK293T or U2OS cells (24 h) in NETN buffer (20 mM Tris-HCl pH 8.0, 100 mM NaCl, 1 mM EDTA, 0.5% NP-40), IP with anti-Flag (M2) magnetic beads or the indicated antibodies, western blot; Fig. 3G two-way; settings: partners not purified
T1 construct: IRE1α, human, point mutant; source: HEK293T and U2OS, transfected, in lysate

[1] = biological target: T2, inositol-requiring enzyme-1α (IRE1α), endogenous (human (endogenous in HEK293T and U2OS), UniProt O75460 19-977); experiment: co-IP; endogenous proteins, lysates of HEK293T and U2OS cells, IP with the indicated antibodies (anti-IRE1α), IgG as negative control; also with RNase A pre-treatment of lysates, in shUPF1 and shUPF2 cells, after STF-083010 or Kira6 (10 or 50 μM, 6 h), BiP overexpression, siBiP, UPF3B overexpression; settings: partners not purified
T2 construct: inositol-requiring enzyme-1α (IRE1α), endogenous in HEK293T and U2OS cells; source: endogenous, HEK293T and U2OS lysates
T2 sequence (O75460 19-977): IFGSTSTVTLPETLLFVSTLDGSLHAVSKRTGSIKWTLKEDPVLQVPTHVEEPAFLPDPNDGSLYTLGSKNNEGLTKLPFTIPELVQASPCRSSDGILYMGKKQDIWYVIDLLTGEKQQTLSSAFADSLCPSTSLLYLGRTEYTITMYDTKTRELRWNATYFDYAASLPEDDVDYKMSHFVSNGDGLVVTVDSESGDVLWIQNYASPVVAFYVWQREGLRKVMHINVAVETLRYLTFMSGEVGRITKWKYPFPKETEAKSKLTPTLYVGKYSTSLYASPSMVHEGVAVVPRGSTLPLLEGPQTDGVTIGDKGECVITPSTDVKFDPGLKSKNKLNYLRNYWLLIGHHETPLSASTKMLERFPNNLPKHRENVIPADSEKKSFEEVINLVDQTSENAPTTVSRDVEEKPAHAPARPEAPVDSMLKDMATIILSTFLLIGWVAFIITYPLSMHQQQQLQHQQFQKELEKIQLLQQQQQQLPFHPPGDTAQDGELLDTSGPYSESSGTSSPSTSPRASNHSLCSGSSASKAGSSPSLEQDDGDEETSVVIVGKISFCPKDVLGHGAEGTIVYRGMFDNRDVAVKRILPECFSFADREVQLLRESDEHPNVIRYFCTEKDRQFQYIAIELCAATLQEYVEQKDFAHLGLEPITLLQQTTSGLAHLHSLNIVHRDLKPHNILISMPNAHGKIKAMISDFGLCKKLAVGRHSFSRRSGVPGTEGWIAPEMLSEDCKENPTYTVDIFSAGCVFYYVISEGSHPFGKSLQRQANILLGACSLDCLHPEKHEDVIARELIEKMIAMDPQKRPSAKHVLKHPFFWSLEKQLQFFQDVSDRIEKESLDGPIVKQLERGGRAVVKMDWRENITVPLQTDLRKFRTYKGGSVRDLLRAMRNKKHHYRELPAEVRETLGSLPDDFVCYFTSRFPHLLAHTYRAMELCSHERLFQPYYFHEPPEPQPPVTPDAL

T1 sequence (O75460 19-977 S724A): as the sequence (O75460 19-977) above, with S706A counted along it

B1: UPF3B, endogenous (natural protein, human (endogenous in HEK293T and U2OS), UniProt Q9BZI7 1-483, looked up)
chain: MKEEKEHRPKEKRVTLLTPAGATGSGGGTSGDSSKGEDKQDRNKEKKEALSKVVIRRLPPTLTKEQLQEHLQPMPEHDYFEFFSNDTSLYPHMYARAYINFKNQEDIILFRDRFDGYVFLDNKGQEYPAIVEFAPFQKAAKKKTKKRDTKVGTIDDDPEYRKFLESYATDNEKMTSTPETLLEEIEAKNRELIAKKTTPLLSFLKNKQRMREEKREERRRREIERKRQREEERRKWKEEEKRKRKDIEKLKKIDRIPERDKLKDEPKIKVHRFLLQAVNQKNLLKKPEKGDEKELDKREKAKKLDKENLSDERASGQSCTLPKRSDSELKDEKPKRPEDESGRDYREREREYERDQERILRERERLKRQEEERRRQKERYEKEKTFKRKEEEMKKEKDTLRDKGKKAESTESIGSSEKTEKKEEVVKRDRIRNKDRPAMQLYQPGARSRNRLCPPDDSTKSGDSAAERKQESGISHRKEGGEE
notes: UPF3B, endogenous in HEK293T and U2OS cells; also called up-frameshift 3B; source: endogenous, HEK293T and U2OS lysates
IRE1α^S724A
  fold change of the co-precipitate against IRE1α^WT: 3.2 fold
[1]
  fold change of the co-precipitate in Kira6-treated against control cells: 3.9 fold
